These results are taken from PMC7099567, “Enzymatic Synthesis of 2-Keto-3-Deoxy-6-Phosphogluconate by the 6-Phosphogluconate-Dehydratase From Caulobacter crescentus” (Frontiers in Bioengineering and Biotechnology, 2020).

For orientation: Km means the substrate concentration at which the rate is half of its maximum. In general, stoichiometry N refers to the number of molecules, sites or subunits per partner or assembly.

Substrate in the data set “purified protein”: O=C(O)[C@H](O)[C@@H](O)[C@H](O)[C@H](O)COP(=O)(O)O
In words: purified protein. The class given is biochemical, Caulobacter vibrioides. Conditions: 100 mM HEPES pH 8.0, 37 C, 0.2 mM NADH, enzyme purified and stored with 5 mM MnCl2.

Data set [1] deals with the molecule itself. In words: SEC; HiLoad 26/60 Superdex 200 prep grade; buffer C (50 mM HEPES/KOH, 300 mM NaCl, 5 mM MnCl, pH 8); isocratic flow 2 ml min^-1; native mass compared with the subunit mass from SDS-PAGE. In general terms: Size exclusion chromatography separates by hydrodynamic size, large species first.

B1: 6-phosphogluconate dehydratase/Entner-Doudoroff dehydratase (EDD) from Caulobacter crescentus (enzyme, UniProt A0A0H3CB86 1-602, looked up)
chain: MSLNPVIADVTARIVARSKDSRAAYLANMDRAIENQPGRAKLSCANWAHAFAASPGVDKLRALDPNAPNIGIVSAYNDMLSAHQPLEAYPALIKDAARDVGATAQFAGGVPAMCDGVTQGRPGMELSLFSRDVIAMATAVALTHDAFDSALYLGVCDKIVPGLVIGALTFSHLPALFVPAGPMTSGLPNSEKARIRALYAEGKVGREELLAAESASYHGPGTCTFYGTANTNQMLMELMGFHLPGSAFVHPNTPLREALVKESARRVAAVTNKGNEFIPVGRMIDEKSFVNGVVGLMATGGSTNLALHIIAMAAAAGVQLTLEDLDDISKATPLLARVYPNGSADVNHFQAAGGMAFVIRELLKAGLVHEDVQTIAGAGLSLYAKEPVLEDGMLTWRDGAHESLDPAIVRPVSDPFSKEGGLRLMAGNLGRGVMKISAVKPEHHVIEAPCAVFQEQEDFIAAFKRGELDRDVVVVVRFQGPSANGMPELHNLSPSISVLLDRGHKVALVTDGRMSGASGKTPAAIHVTPEAAKGGPLAYVQDGDVIRVNAETGELKIMVDEATLLARTPANVPASKPGFGRELFGWMRSGVGAADAGASVFA
notes: Homodimer by size exclusion chromatography (130 kDa native, 63.2 kDa by SDS-PAGE); also called CcEDD; 6PG dehydratase; source: E. coli BL21 (DE3), pET15b, purified (Ni-TED)
In the case of B1, the Km in “purified protein” turned out to be 300 µM. The “stoichiometry N” value in data set [1] came to 2.
